Measurements taken from US20250000946A1 (WUXI BIOLOGICS IRELAND, published 2025).

Tests used:
[1] = molecular target: T1, Human IL-2Rβ/γ (intermediate affinity IL-2 receptor) (human, UniProt P14784 27-551; P31785 23-369); test: FACS, HH cells
T1 construct: whole, on cells; also called IL-2Rβ/γc; IL-2Rβ (CD122) and γ (CD132)
T1 sequence (looked up) 1: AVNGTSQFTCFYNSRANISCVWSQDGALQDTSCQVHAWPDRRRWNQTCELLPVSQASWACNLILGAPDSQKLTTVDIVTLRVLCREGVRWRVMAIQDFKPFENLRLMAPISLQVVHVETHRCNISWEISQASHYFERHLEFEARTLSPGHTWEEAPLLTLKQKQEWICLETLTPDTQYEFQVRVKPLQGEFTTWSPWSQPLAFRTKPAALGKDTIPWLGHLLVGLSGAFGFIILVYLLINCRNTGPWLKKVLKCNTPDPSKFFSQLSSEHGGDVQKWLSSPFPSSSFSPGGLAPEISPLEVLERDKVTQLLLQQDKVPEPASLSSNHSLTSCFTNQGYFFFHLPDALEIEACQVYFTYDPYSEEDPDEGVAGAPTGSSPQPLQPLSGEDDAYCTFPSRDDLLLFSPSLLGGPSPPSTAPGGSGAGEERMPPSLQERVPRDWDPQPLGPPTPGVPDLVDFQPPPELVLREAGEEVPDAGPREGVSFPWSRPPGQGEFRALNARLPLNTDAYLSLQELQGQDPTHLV
T1 sequence (looked up) 2: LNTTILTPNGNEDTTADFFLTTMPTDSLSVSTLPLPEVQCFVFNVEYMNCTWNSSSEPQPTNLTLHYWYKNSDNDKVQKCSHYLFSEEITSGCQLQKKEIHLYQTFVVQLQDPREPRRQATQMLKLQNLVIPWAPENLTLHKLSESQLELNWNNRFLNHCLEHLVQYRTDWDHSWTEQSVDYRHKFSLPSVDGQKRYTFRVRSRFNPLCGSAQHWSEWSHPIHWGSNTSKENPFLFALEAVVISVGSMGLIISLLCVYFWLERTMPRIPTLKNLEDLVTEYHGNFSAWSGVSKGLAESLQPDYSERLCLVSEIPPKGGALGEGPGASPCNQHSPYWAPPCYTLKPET
Procedure: (§1) Human cutaneous T cell lymphoma HH cells, malignant non-Hodgkin's lymphoma NK92 cells and cutaneous T cell lymphoma MJ20 cells were used for binding assay. They both constitutively express IL-2Rβ (CD122) and […] (CD132), and NK92 and MJ20 also expresses IL-2Rα (CD25). HH, NK92 and MJ20 cells were cultured following ATCC guidance, then transferred to a 96-plate for binding analysis. Cells were incubated with IL-2/Fc fusion proteins at the indicated concentrations for 30 min at 4° C. to avoid internalization. Binding was detected by 2nd antibody of PE-anti-human Fc at 4° C. for another 30 min. The median fluorescence intensity (MFI) on HH and NK92 cells was measured using FACS.

[2] = molecular target: T2, Human IL-2Rα/β/γ complex (high affinity IL-2 receptor) (human, UniProt P01589 22-272; P14784 27-551; P31785 23-369); test: FACS, MJ20 cells
T2 construct: whole, on cells
T2 sequence (looked up) 1: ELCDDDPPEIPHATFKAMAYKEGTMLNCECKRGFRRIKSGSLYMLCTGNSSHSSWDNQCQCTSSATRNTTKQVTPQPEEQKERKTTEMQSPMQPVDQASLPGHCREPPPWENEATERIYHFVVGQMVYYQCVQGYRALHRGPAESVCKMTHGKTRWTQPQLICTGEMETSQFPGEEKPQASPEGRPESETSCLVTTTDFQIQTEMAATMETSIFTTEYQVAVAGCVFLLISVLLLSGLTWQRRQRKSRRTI
T2 sequence (looked up) 2: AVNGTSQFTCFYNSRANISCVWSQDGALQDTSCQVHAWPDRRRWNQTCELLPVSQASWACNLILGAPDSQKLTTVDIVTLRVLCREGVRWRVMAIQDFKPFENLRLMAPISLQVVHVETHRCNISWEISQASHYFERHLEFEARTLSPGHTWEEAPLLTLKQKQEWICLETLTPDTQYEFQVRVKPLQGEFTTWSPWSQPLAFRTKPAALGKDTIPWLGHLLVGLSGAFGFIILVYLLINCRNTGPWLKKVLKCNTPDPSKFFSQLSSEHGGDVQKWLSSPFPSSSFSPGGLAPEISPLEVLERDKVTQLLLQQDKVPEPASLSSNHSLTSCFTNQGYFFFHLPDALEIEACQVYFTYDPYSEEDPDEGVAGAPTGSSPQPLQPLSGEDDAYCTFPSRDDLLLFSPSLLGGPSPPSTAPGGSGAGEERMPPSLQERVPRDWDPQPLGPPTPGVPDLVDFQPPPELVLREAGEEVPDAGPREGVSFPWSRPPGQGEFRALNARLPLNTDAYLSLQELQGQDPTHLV
T2 sequence (looked up) 3: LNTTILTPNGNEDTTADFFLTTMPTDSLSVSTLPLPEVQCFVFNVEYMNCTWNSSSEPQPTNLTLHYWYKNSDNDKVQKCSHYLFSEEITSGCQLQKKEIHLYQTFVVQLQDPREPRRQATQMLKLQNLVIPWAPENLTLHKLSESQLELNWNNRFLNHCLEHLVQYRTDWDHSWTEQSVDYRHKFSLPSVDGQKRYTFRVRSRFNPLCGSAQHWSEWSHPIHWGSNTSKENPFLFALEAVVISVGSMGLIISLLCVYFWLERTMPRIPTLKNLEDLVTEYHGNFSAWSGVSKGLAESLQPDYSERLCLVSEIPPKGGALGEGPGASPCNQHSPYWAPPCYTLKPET
Procedure: as §1
(§2) Affinity of IL-2 variants to IL-2Rα/β/γ supported the same results (FIG. 8 and Table 7). […] And T2U0.E44-26, T2U0.E44-27, T2U0.E44-29 and T2U0.E44-30 induced hundreds to thousands affinity reduction in Treg compared to T2U0.E44-1. Binding curves in MJ20 cells (IL-2Rα/β/γ) also achieved similar trend (FIG. 8b). As a result, the method of C-terminal truncation and substitution of 129 was available to achieve IL-2Rβγ attenuated IL-2 variants.

[3] = molecular target: T1, Human IL-2Rβ/γ (intermediate affinity …); test: cell-based or functional assay
[4] = molecular target: T2, Human IL-2Rα/β/γ complex (high affinity …); test: cell-based or functional assay
[5] = molecular target: T1, Human IL-2Rβ/γ (intermediate affinity …); test: FACS, HH cells; EC50 fold vs T2U0.E44-1
Procedure: as §1

[6] = molecular target: T2, Human IL-2Rα/β/γ complex (high affinity …); test: FACS, MJ20 cells; EC50 fold vs T2U0.E44-1
Procedure: as §1, §2

Binder	EC50 [1] [nM]	EC50 [2] [nM]	Potency in human CD8+ T EC50 [3] [nM]	Potency reduction (CD8+ T) [3] [fold]	Potency in human Treg EC50 [4] [nM]	Potency reduction (Treg) [4] [fold]	Affinity reduction [5] [fold]	Affinity reduction [6] [fold]
W3XX115-T2U0.E44-24.uIgG4V1 (Fc fusion, IL-2 del STLT and 1 aa deleted in IgG4 N-terminal hinge; E44 format) APTSSSTKKTQLQLEHLLLDLQMILNGINNYKNPKLTRMLTFKFYMPKKATELKHLQCLEEELKPLEEVLNLAQSKNFHLRPRDLISNINVIVLELKGSETTFMCEYADETATIVEFLNRWITFCQSIISKYGPPCPPCPAPEFLGGPSVFLFPPKPKDTLMISRTPEVTCVVVDVSQEDPEVQFNWYVDGVEVHNAKTKPREEQFNSTYRVVSVLTVLHQDWLNGKEYKCKVSNKGLPSSIEKTISKAKGQPREPQVYTLPPCQEEMTKNQVSLWCLVKGFYPSDIAVEWESNGQPENNYKTTPPVLDSDGSFFLYSRLTVDKSRWQEGNVFSCSVMHEALHNHYTQKSLSLSLG heavy: EIQLQQSGPELVKPGASVKVSCKASGYSFTDYNMYWVKQSHGESLEWIGYIDPYNGGTRYNQKFKGKATLTVDKSSSTAFMHLNSLTSEDSAVYYCARNGHWDGAWFAYWGQGTLVTVSAASTKGPSVFPLAPCSRSTSESTAALGCLVKDYFPEPVTVSWNSGALTSGVHTFPAVLQSSGLYSLSSVVTVPSSSLGTKTYTCNVDHKPSNTKVDKRVESKYGPPCPPCPAPEFLGGPSVFLFPPKPKDTLMISRTPEVTCVVVDVSQEDPEVQFNWYVDGVEVHNAKTKPREEQFNSTYRVVSVLTVLHQDWLNGKEYKCKVSNKGLPSSIEKTISKAKGQPREPQVCTLPPSQEEMTKNQVSLSCAVKGFYPSDIAVEWESNGQPENNYKTTPPVLDSDGSFFLVSRLTVDKSRWQEGNVFSCSVMHEALHNHYTQKSLSLSLG light: DIQMNQSPSSLSASLGDTITITCHASQNINVWLSWYQQKPGNIPKLLIYKASNLHTGVPSRFSGSRSGTGFTLTISSLQPEDIATYYCHQGQSYPFTFGSGTKLEIKRTVAAPSVFIFPPSDEQLKSGTASVVCLLNNFYPREAKVQWKVDNALQSGNSQESVTEQDSKDSTYSLSSTLTLSKADYEKHKVYACEVTHQGLSSPVTKSFNRGEC	438	18.4	125	6.3	0.003	1.2	8.1	1.3
W3XX115-T2U0.E44-25.uIgG4V1 (Fc fusion, IL-2 del STLT and 2 aa deleted in IgG4 N-terminal hinge; E44 format) APTSSSTKKTQLQLEHLLLDLQMILNGINNYKNPKLTRMLTFKFYMPKKATELKHLQCLEEELKPLEEVLNLAQSKNFHLRPRDLISNINVIVLELKGSETTFMCEYADETATIVEFLNRWITFCQSIIKYGPPCPPCPAPEFLGGPSVFLFPPKPKDTLMISRTPEVTCVVVDVSQEDPEVQFNWYVDGVEVHNAKTKPREEQFNSTYRVVSVLTVLHQDWLNGKEYKCKVSNKGLPSSIEKTISKAKGQPREPQVYTLPPCQEEMTKNQVSLWCLVKGFYPSDIAVEWESNGQPENNYKTTPPVLDSDGSFFLYSRLTVDKSRWQEGNVFSCSVMHEALHNHYTQKSLSLSLG heavy: EIQLQQSGPELVKPGASVKVSCKASGYSFTDYNMYWVKQSHGESLEWIGYIDPYNGGTRYNQKFKGKATLTVDKSSSTAFMHLNSLTSEDSAVYYCARNGHWDGAWFAYWGQGTLVTVSAASTKGPSVFPLAPCSRSTSESTAALGCLVKDYFPEPVTVSWNSGALTSGVHTFPAVLQSSGLYSLSSVVTVPSSSLGTKTYTCNVDHKPSNTKVDKRVESKYGPPCPPCPAPEFLGGPSVFLFPPKPKDTLMISRTPEVTCVVVDVSQEDPEVQFNWYVDGVEVHNAKTKPREEQFNSTYRVVSVLTVLHQDWLNGKEYKCKVSNKGLPSSIEKTISKAKGQPREPQVCTLPPSQEEMTKNQVSLSCAVKGFYPSDIAVEWESNGQPENNYKTTPPVLDSDGSFFLVSRLTVDKSRWQEGNVFSCSVMHEALHNHYTQKSLSLSLG light: DIQMNQSPSSLSASLGDTITITCHASQNINVWLSWYQQKPGNIPKLLIYKASNLHTGVPSRFSGSRSGTGFTLTISSLQPEDIATYYCHQGQSYPFTFGSGTKLEIKRTVAAPSVFIFPPSDEQLKSGTASVVCLLNNFYPREAKVQWKVDNALQSGNSQESVTEQDSKDSTYSLSSTLTLSKADYEKHKVYACEVTHQGLSSPVTKSFNRGEC	1280	63.2	84.9	4.2	0.022	8.8	23.8	4.5
